The DeepSol protein solubility set

Assay: soluble on expression in E. coli; label from the status in PepcDB or PDB records

Sequence | soluble on expression in E. coli
SLGEVPSPQELIEVADAAPNAASGVLKLYRAYREQAQRLSDLSDLLAREGHETALSSTRLPIDEVRHVFENRPAYFHAIDAAAEELHKQLSTGDDLASGLRAWLQKNHGIVVRTLPVHAMPNLRRRYDRHSMRLFLSERLSQPDQLREMAMETCLLALREEIGTELEALGLKGEEARRIARFELARYAAHALMMPYGAFLAAAQRAKYDLDVLRSRFNVSFEQAANRLVSLQRPTTAAIPFFLMEIDNAGNRFRLAGAGGFPRARFGGLCPRLNIHAAFAQPGQVLVESVEMPDGDAFLTVSRTLEGPQAGFGERVRRTAVLLGCDLGQAGETVYGPAASGAAPVAIGPSCRLCERQGCLSRAEAPLTRPLGLDEMVTGLSVFDFQ | soluble
SLIHIAIVEDENKDRELLKEYLDRFQAEKGEPLFVHVYPDGEEFLESFSSGKFDILLLDIHMQYMNGMATAQEIRKSDENVLIIFITNLVQYAVQGYSVRAFDFIVKPVEYSVFAQKLYRATQRLNRTIHSCVRFKVLDQIVNLQLSGILYFEIVARKLFIYTDTEIYRCNDTLHSIEEKLNDGHFFRCHAGYLVNVAYVRSVGKDYAMVGSARIPVSKHRRKAFLDAIGNYLGSKEG | not soluble
SLIYFFMVDAVELSRKYEGKIEIYPKVPITSYNDFALIYTPGVAEVSKAIYKDPDKSFELTSRWNTIAVVTDGTRVLGLGNIGPTAAMPVMEGKSLLFKYLGGVDAIPLPINVKSADEFTNVVKALETSFGGINLEDIESPKCFYILEKLQSMLNIPVWHDDQQGTAAAILAGLINAMILTNKDPKESKVVFYGAGASNIAAARILAKYGFKYENIVMIDSKGPLYADREDVDHLMLHHKWKYELAIKTNKWEAKEIKDAFSGADAVVAASTPGPNVIKKEWISLMNKEAIVFALANPVPEIWPQDAKEAGAKIVATGRSDFPNQVNNSLIFPAIFRGVLDSRAKAITDEMTIAASEALAKYARDRGINENYIIPRMDEWEAFYEEAAAVASKAVELGLARVKKSREEFREIAKERIIRARKIMNLVISTWSPEG | soluble
SLKDELHKLSYLDANRILEERLTETRYFSLNSNEYKNFQTSNPNFLFAAVIDGHAGGTIADVARKSLGYYLKKELIEIGVNSKRGGCRERAIVSALKKAHLNFDNDLLNQSKDYFLNGTSKYARTGACSLSVLIDERNYYISNIGDSVGLLIKKHFYLPLNRIHNASEFNEKRKLLEEHPNEEDILVCKICTRDYKTVNNNNTYELCKTPFHLLSHHYDNCYVKGRLQPTRSFGDFHLKKKMFAYSVDGTRLFVPEPHSFPYISAEPELRVMKKHPDDQFIVLMSDGVYEFLNHAQVINVIKTYGASPERAAKELINRVLEAAAYSSGMTMKQLLNLDPSIRRNFYDDVSVVVIKLN | not soluble
SLNILFDIGHPKDVNVFKNVIWKLQERGHEIKIVARAKENTKRVLEEYGFEYEVCKYYKTMSGKALGIITNDIHLYNIAKKFQPDIFVSPGSPYSAHVSRLLRKPHIAFSDTEIAGLVMKLTFPFTDKIYTSSSFYLDLGPKQIRFNGYYELAYLHSNYFTPNRDVLKKYNLDEGYIILRLSALSSHHDIGAKGFTFSSEEELIDFIRELERYGRVIVSSETKQWKTISDYELKFKPGDLHDLLYYSKMCIGEGATMASEAAILGVPAIYVSNTHRGYLDELETYELAFTIQEREEALKKAKSLLEEDSLVKNSKEKREKLLKEKTDVVEFMVNAIEGSYKL | soluble
SLPNASRVVIVAGEESGDHHAAELVKQLKAVYPDLEISGIGGKHLRAAGVHLISDLTRYAVTGLTEIIPFLKIFRKAFQDIKQHLSTQKPDLLILVDYPAFNLRLAKYAKKKLGLKIIYYISPQIWAWKGKRIHLIKDCIDKMAVIFPFEKTIYENAGVPVSFVGHPLVKKIAAAKDKHSSRTSLGLPLNEPIIALLPGSRHSEIERHIPILVNTAKLLTLDSPKLRFVVPIAGTINPDKVKAYFSNQNLTVTFIQGQAIECMSAADFVIVASGTASLECALLEKPMCIIYKSSFLTYVAAMYFIKVKFLGLCNLLANKMMVPEFLQYDCNAIELSRYISNFHNNPNQPESMINQLAKLKESLSSSQADCSLFDLVVAELPEKNA | not soluble
SLPSVLDTLAAHSDNPSSFLALNSGNAYFHDGGFDGACAYRTSGRYVLQFGGPFTAPEHRARLLDAFAAHAGRRLVAVQLQRADAELYAAHGFTVNQLGASYAVDLSRFTLRGSRFVRLRNKISRARRAGLEVAEVMAGDDCAELDRIDQCWLRDKGRHVKELRFLVGQRNGSLQRHRRLFVGRIDGETAGYINYSPVYGSRSGWLHDLSRRRPDAPPGVMEALNATVMERLTAEGAGWLHFGFTPFTGLDPEHELPGASRMFTRFARLLAERGDVIYPAASQLEYKQKWAPHVVLPEYIAFRGRPRPGAVWQLLRATNAL | soluble
SLQKQEKIIEMFNQIAPTYDKANRILSFGADVAWRKKACQRVMSLYLKKDLKIADIACGTGDMIEIWQESALKMEKNILNIKGIDPSSGMLNVAKEKFPNVEFIKAGAQNLPLESQSLDILSISYGIRNVVERQKALSEFARVLQKDGILVVLEFTKREKGGFIAACRDFYLKNILPSIGGIISKNKSAYEYLPNSIEGFLSKKEFILELKNAGFEMLDYKSFSFGVSSMFIAKKL | soluble
SLQMKNYQQTLKRMSDRSSGFLGVGVHKQKLGIGAIAIVVTDKDGEIVDCEMMSGVTVFSRFKPLTDFVGMSLNECKVLLQNESVDIALHGALKKIEEQMNRKENVTT | soluble
SLRYIRQLCCVSLLCLSGSAVAANVRLQVEGLSGQLEKNVRAQLSTIESDEVTPDRRFRARVDDAIREGLKALGYYQPTIEFDLRPPPKKGRQVLIAKVTPGVPVLIGGTDVVLRGGARTDKDYLKLLDTRPAIGTVLNQGDYENFKKSLTSIALRKGYFDSEFTKAQLGIALGLHKAFWDIDYNSGERYRFGHVTFEGSQIRDEYLQNLVPFKEGDEYESKDLAELNRRLSATGWFNSVVVAPQFDKARETKVLPLTGVVSPRTENTIETGVGYSTDVGPRVKATWKKPWMNSYGHSLTTSTSISAPEQTLDFSYKMPLLKNPLEQYYLVQGGFKRTDLNDTESDSTTLVASRYWDLSSGWQRAINLRWSLDHFTQGEITNTTMLFYPGVMISRTRSRGGLMPTWGDSQRYSIDYSNTAWGSDVDFSVFQAQNVWIRTLYDRHRFVTRGTLGWIETGDFDKVPPDLRFFAGGDRSIRGYKYKSIAPKYANGDLKGASKLITGSLEYQYNVTGKWWGAVFVDSGEAVSDIRRSDFKTGTGVGVRWESPVGPIKLDFAVPVADKDEHGLQFYIGLGPEL | soluble
SLRYSKLTMLIPCALLLSACTTVTPAYKDNGTRSGPCVEGGPDNVAQQFYDYRILHRSNDITALRPYLSDKLATLLSDASRDNNHRELLTNDPFSSRTTLPDSAHVASASTIPNRDARNIPLRVDLKQGDQGWQDEVLMIQEGQCWVIDDVRYLGGSVHATAGTLRQSIENR | not soluble
SLSFASSACFNEAGTMFRIEPNLIKAIALVESNLKKDSIGKNRDKKNNIKSFDYGLMQINQMHIPMLKKRGIIKDERDLLDNPCLNIKIGTEILYKHFSRCGMTWQCLGTYNAGFAMDNQKKRLQYAKKIYIVYTRLNELDNRKALA | not soluble
SLSMVLLRGRLLSFRRAPLSIDDTQSYLYIEDGGLLLENGRIAAIGEYADIRETAPEDVEEKDHRPHLIVPGLIDMHLHFPQMQVIGSYAANLLEWLNTYTFPEECRFVESAHAQRIATHFYDELLRHGTTTAAAYCSVHKTSADAFFTEAMKRNMLMIGGKVMMDRNAPQGLLDTPETSYDETRQVIADWHGRGRNHVAITPRFAITSTPKQMEAAQALAQEFPDLFIQTHLSENLDEIKYTCELYPEATDYTDIYVRYGLMGNKTLLGHAIHLSDREADVLSETGAVAVHCPTSNLFIGSGLFPMKKLQRREKPVRIAVATDIGGGSSYSMLRTMDEAYKIQQLLGERLNPLESWYLMTRGNAEALSMVDRIGTLEAGTDADITVLNASSTPAMALKMEVVKSLTEELFLMLTMGDDRTVVETYVAGRAMKSVLA | not soluble
SLTTEVVMENVTAFWEEGFGELFEKAKQNNNNRKTSNGDDSLSFSNFSLLGTPVLKDINFKIERGQLLAVAGSTGAGKTSLLMMIMGELEPSEGKIKHSGRISFCSQFSWIMPGTIKENIIFGVSYDEYRYRSVIKACQLEEDISKFAEKDNIVLGEGGITLSGGQRARISLARAVYKDADLYLLDSPFGYLDVLTEKEIFESCVCKLMANKTRILVTSKMEHLKKADKILILHEGSSYFYGTFSELQNLQPDFSSKLMGGGGGSGGGGSGGGGSDDIWPSGGQMTVKDLTAKYTEGGNAILENISFSISPGQRVGLLGRTGSGKSTLLSAFLRLLNTEGEIQIDGVSWDSITLQQWRKAFGVIPQKVFIFSGTFRKNLDPYEQWSDQEIWKVADEVGLRSVIEQFPGKLDFVLVDGGCVLSHGHKQLMCLARSVLSKAKILLLDQPSAHLDPVTYQIIRRTLKQAFADCTVILCEHRIEAMLECQQFLVIEENKVRQYDSIQKLLNERSLFRQAISPSDR | soluble
SLTTQRLGLIMNGVTGRMGLNQHLIRSIVAIRDQGGVRLKNGDRIMPDPILVGRSAEKVEALAKRFNIARWTTDLDAALADKNDTMFFDAATTQARPGLLTQAINAGKHVYCEKPIATNFEEALEVVKLANSKGVKHGTVQDKLFLPGLKKIAFLRDSGFFGRILSVRGEFGYWVFEGGWQEAQRPSWNYRDEDGGGIILDMVCHWRYVLDNLFGNVQSVVCIGNTDIPERFDEQGKKYKATADDSAYATFQLEGGVIAHINMSWVTRVYRDDLVTFQVDGTHGSAVAGLSDCMIQARQATPRPVWNPDEKRLHDFYGDWQKLPDNVSYDNGFKEQWEMFIRHVYEDAPYKFTLLEGAKGVQLAECALKSWKERRWIDVAPIK | soluble
SLTVFQPLVPPDWKMNLREGSLYAQVAFSAAAGQGFEAGGHGVLKGGSAWMPDNQINGVDFVLPFRFSDGHWQLGIRRPVSLRIGEIVNQVTARNLTADLQGTWPWSEANPLQLSDVSVDLLGGKLTLLQLRMPQRDPALIRLQHISSSELTSAVKVKQFAMSGAVSGALPLWLENNQWIIHDGWLRNDGPMTLRLDKDTADALVADNVSAGAAINWLRYMEISRSWTQINLDNLGVLTLKASINGTSRVEGKSSTVHLNYAHEENIFDLWRSLRFGDNLQAWLEQNATL | not soluble
SMFRDQVGVLAGWFKGWNECEQTVALLSLLKRVSQTQARFLQLCLEHSLADCAELHVLEREANSPGIINQWQQESKDKVISLLLTHLPLLKPGNLDAKVEYMKLLPKTLAHSIEHNQHIEESRQLLSYALIHPATSLEDRSALAMWLNHLEDRTSTSFGGQNRGRSDSVDYGQTHYYHQRQNSDDKLNGWQNSRDSGICINASNWQDKSMGCENGHVPLYSSSSVPTTINTIGTSTSTSKFPGIPLT | soluble
SMGLPPGWDEYKTHNGKTYYYNHNTKTSTWTDPRMSS | soluble
SMSQIMYNYPAMLGHAGDMAGYAGTLQSLGAEIAVEQAALQSAWQGDTGITYQAWQAQWNQAMEDLVRAYHAMSSTHEANTMAMMARDTAEAAKWGG | soluble
SMTGPIVYVQNADGIFFKLAEGKGTNDAVIHLANQDQGVRVLGAEEFPVQGEVVKIASLMGFIKLKLNRYAIIANTVEETGRFNGHVFYRVLQHSIVSTKFNSRIDSEEAEYIKLLELHLKNSTFYFSYTYDLTNSLQRNEKVGPAASWKTADERFFWNHYLTEDLRNFAHQDPRIDSFIQPVIYGYAKTVDAVLNATPIVLGLITRRSIFRAGTRYFRRGVDKDGNVGNFNETEQILLAENPESEKIHVFSFLQTRGSVPIYWAEINNLKYKPNLVLGENSLDATKKHFDQQKELYGDNYLVNLVNQKGHELPVKEGYESVVHALNDPKIHYVYFDFHHECRKMQWHRVKLLIDHLEKLGLSNEDFFHKVIDSNGNTVEIVNEQHSVVRTNCMDCLDRTNVVQSVLAQWVLQKEFESADVVATGSTWEDNAPLLTSYQNLWADNADAVSVAYSGTGALKTDFTRTGKRTRLGAFNDFLNSASRYYQNNWTDGPRQDSYDLFLGG | soluble
